Assay results taken from patent US20240287172A1 (SCIRHOM, published 2024).
Changes are numbered by the printed parent chain.

T1: hiR2-FL-R543Q-T7 (human, UniProt Q6PJF5 1-856)
T1 sequence: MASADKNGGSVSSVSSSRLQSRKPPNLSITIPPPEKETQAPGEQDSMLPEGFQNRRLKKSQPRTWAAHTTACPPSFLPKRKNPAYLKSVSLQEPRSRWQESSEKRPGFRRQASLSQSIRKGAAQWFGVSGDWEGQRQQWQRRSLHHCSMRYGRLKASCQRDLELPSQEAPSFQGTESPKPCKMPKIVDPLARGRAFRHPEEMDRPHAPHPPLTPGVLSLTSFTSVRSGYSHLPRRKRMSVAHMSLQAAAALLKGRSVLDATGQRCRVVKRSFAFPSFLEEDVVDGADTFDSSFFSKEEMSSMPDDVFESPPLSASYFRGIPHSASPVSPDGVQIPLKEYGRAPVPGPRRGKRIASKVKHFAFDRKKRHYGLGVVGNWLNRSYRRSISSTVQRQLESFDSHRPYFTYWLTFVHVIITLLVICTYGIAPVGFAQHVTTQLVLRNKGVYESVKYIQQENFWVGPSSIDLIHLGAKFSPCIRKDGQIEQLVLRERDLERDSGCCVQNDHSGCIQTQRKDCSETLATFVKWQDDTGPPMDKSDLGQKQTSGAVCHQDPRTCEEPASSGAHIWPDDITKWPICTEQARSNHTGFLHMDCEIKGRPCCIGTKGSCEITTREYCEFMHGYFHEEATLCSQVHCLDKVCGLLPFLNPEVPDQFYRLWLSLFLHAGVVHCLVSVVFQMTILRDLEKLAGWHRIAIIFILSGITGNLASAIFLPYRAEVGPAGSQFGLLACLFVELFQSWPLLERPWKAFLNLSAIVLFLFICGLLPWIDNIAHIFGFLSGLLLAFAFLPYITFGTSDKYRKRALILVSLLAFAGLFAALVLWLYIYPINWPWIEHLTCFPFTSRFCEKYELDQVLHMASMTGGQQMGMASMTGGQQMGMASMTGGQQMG

T2: hiR2-FL-P533-T7 (deletion of P533) (human, UniProt Q6PJF5 1-856)
T2 construct: single residue deletion, not a substitution; on MEF-DKO cells
T2 sequence: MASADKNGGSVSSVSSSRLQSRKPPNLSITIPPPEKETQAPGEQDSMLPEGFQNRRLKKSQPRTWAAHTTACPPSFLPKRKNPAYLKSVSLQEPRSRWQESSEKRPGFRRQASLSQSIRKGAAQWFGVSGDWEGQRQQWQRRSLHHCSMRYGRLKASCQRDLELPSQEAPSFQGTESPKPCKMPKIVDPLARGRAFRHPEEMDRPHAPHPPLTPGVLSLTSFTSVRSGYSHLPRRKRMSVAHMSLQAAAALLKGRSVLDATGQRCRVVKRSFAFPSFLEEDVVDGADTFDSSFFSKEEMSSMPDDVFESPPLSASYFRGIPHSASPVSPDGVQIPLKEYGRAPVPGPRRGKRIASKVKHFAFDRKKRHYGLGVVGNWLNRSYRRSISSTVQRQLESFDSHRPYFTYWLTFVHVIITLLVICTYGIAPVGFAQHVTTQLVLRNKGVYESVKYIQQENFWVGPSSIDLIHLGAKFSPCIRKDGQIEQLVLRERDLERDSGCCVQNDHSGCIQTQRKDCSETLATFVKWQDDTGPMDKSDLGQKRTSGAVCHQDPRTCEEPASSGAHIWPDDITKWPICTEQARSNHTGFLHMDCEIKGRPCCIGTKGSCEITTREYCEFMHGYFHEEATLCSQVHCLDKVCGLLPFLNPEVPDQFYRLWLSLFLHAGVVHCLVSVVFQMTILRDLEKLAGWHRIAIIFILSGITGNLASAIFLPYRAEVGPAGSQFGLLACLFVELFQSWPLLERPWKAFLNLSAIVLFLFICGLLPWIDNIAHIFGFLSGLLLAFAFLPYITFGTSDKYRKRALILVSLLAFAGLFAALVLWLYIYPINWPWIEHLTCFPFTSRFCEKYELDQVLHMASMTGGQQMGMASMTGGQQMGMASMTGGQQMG

B1: antibody 3 (antibody, V domains shown)
VH: QVTLKESGPGILQPSQTLSLTCSFSGFSLTTFAMGIGWVRQPSGKGLEWLAHIWWDGEKYNNPVLKSRLTISKDTSKNQVFLRIANVDTPDTATYYCARISSIYYIIDNWGQGTSVTVSS
VL: DIVLTQSPATLSVTPGHSVSLSCRASQSISNNLHWYQKKSHESPRLLIKYVSQSISGIPSRFSGSGSGTDFTLSINSVETEDFGMYFCQQSYNWPLTFGAGTKLELK
notes: mouse IgG, kappa light chain; also called clone #3; purified antibody 3
B2: antibody 5 (antibody, V domains shown)
VH: QVTLKESGPGILQPSQTLSLTCSFSGFSLSTFGMGVGWIRQPSGKGLEWLAHIWWDDEKYYNSALKSRLTISKATSKNQAFLKIANVDTADTATYYCARISNYGSNYWYFNVWGTGTTVTVSS
VL: QVVLTQSPALMSASPGEKVTMTCSAGSSVSCMYWYQQKPGSSPRVLIYDTSNLASGVPARFTGSGSGTSYSLTISRMEAEDAASYYCQQWNSYPLTFGAGTKLELK
notes: mouse IgG, kappa light chain; also called clone #5; purified antibody 5
B3: antibody 43 (antibody, V domains shown)
VH: B2 VH with T3A, P42S, H52N, E58D, S63P, A74D, T75A, S101G, N111D
VL: QIVLTQSPAIMSASPGERVTMTCSANSRISYMYWYQQKPGSSPRLLIYDTSNLASGVPVRFSGSGSGTSYSLTISRMEAEDAATYNCQQWSSYPLTFGAGTKLELK
notes: mouse IgG, kappa light chain; also called clone #43; purified antibody 43
B4: antibody 42 (antibody, V domains shown)
VH: B2 VH with F24L, M34R, S63P, A74D, A80V, K83R, S101Q, N111D
VL: B3 VL with Q1L, R18K, S24G, N26T, Y33F, L45V, M77V, A82V, N86Y, S91N
notes: mouse IgG, kappa light chain; also called clone #42; purified antibody 42
B5: antibody 44 (antibody, V domains shown)
VH: B2 VH with G44E, E58D, S63P, A74D, A80I, A85T, D91E, A98S, S101G, N111D
VL: QIVLTQSPAVMSASPGEKVTMTCTASSSVYYMYWYQQTPGSSPRLLIYDTSNLASGVPVRFSGSGSGTSYSLTISRMEAEDAATYYCQQWNTYPLTFGAGTKLELK
notes: mouse IgG, kappa light chain; also called clone #44; purified antibody 44
B6: antibody 22 (antibody, V domains shown)
VH: B2 VH with A80V
VL: B2 VL with C31Y, S84T
notes: mouse IgG, kappa light chain; also called clone #22; purified antibody 22
B7: antibody 34 (antibody, V domains shown)
VH: QVTLKESGPGILQPSQTLSLTCSFSGFSLSTFSLGVGWIRQSSGKGLEWLAHIWWDDEKYYNPALKSRLTISKDTSKNQVFLKIANVDAADTATYYCARAYYSKSYYALDYWGQGTSVTVSS
VL: DIQMTQSPSSLSASLGERVSLTCRASQEISGYLSWLQQKPDGTIKRLIYAASTLDSGVPKRFSGSRSGSDYSLAISSLESEDFADYYCLQYANFPFTFGSGTKLEIK
notes: mouse IgG, kappa light chain; also called clone #34; purified antibody 34
B8: antibody 50 (antibody, V domains shown)
VH: QVQLQQSGAELVRPGASVKVSCKASGYAFSNYLIEWVKQRPGQGLEWIGVINPGSGFTKYNEKFKGKATLTADKSSSTAYMQLSSLTSEDSAVYFCARGLYRAMDYWGQGTSVTVSS
VL: DIQMTQSPASQSASLGESVTITCLASQTIGTWLAWYQQKPGKSPQLLIYAAASLADGVPSRFSGGGSGTKFSFKISSLQAEDFVNYYCQQIYSTPYTFGGGTKLEIK
notes: mouse IgG, kappa light chain; also called clone #50; purified antibody 50
B9: antibody 16 (antibody, V domains shown)
VH: QVTLKESGPGILQPSQTLSLTCSFSGFSLSTFALGVGWIRQPSGRGLEWLAHIWWDDDKYYNPALKSRLTISKDTSKNHVFLKIANVDTADTATYYCARITTYYYGMDYWGQGTSVTVSS
VL: B1 VL with T5S, H17D, S22F, S30G, N32H, K38Q, K39E, E42A, V51A
notes: mouse IgG, kappa light chain; also called clone #16; purified antibody 16

molecular target: T1, hiR2-FL-R543Q-T7; assay: FACS, MEF-DKO cells, 3 µg/ml
Description: (§1) In brief, immortalized MEF-DKO-hiR2-FL-WT-T7 cells, MEF-DKO-miR2-FL-WT-T7 cells and MEF-DKO-hiR2-FL-R441K-T7, MEF-DKO-hiR2-FL-K443R-T7, MEF-DKO-hiR2-FL-V459I-T7, MEF-DKO-hiR2-FL-G481Q-T7, MEF-DKO-hiR2-FL-L488R-T7, MEF-DKO-hiR2-FL-L493I-T7, MEF-DKO-hiR2-FL-D496T-T7, MEF-DKO-hiR2-FL-H505R-T7, MEF-DKO-hiR2-FL-Q512L-T7, MEF-DKO-hiR2-FL- R513K-T7, MEF-DKO-hiR2-FL-D528N-T7, MEF-DKO-hiR2-FL-P533-T7, MEF-DKO-hiR2-FL-M534S-T7, MEF-DKO-hiR2-FL-G540S-T7, MEF-DKO-hiR2-FL-R543Q-T7, MEF-DKO-hiR2-FL-T544P-T7, MEF-DKO-hiR2-FL-G546A-T7, MEF-DKO-hiR2-FL-A547V-T7, MEF-DKO-hiR2-FL-R582Q-T7, MEF-DKO-hiR2-FL-F588L-T7, MEF-DKO-hiR2-FL-M591I-T7, MEF-DKO-hiR2-FL-E594K-T7, MEF-DKO-hiR2-FL-E626D-T7, MEF-DKO-hiR2-FL-L657I-T7, and MEF-DKO-hiR2-FL-H835Y-T7 cells were harvested with 10 mM EDTA in PBS, washed and resuspended in FACS buffer (PBS, 3% FBS, 0.05% sodium azide), and seeded in Nunc U-bottom 96-well plates (Thermo Fisher Scientific, USA) at approximately 3×10⁵ cells per well.
(§2) To pellet cells and remove supernatants, the plates were centrifuged at 1,500 rpm and 4° C. for 3 minutes. For primary staining, cells were resuspended in 100 μl per well of either FACS buffer alone (controls) or the purified antibodies 3, 5, 16, 22, 34, 42, 43, 44, 48, and 50 of the invention at 3 μg/ml FACS buffer and incubated on ice for 1 hour. Afterwards, plates were centrifuged at 1,500 rpm and 4° C. for 3 minutes and washed twice with 200 μl per well of FACS buffer. For secondary staining, cells were spun down and resuspended in 100 μl per well of PE-conjugated goat anti-mouse IgG F(ab′)2 detection fragment (Dianova, Germany) diluted 1:100 in FACS buffer. Protected from light, the cell suspensions were incubated on ice for 1 hour. Plates were then centrifuged at 1,500 rpm and 4° C. for 3 minutes and washed three times with 200 μl per well of FACS buffer. Finally, cells were resuspended in 150 μl per well of FACS buffer and analyzed using a BD Accuri™ C6 Plus flow cytometer (Becton Dickinson, Germany).

Row | Binder | loss of binding vs wild type
1 | B1 | ≥ 60%
2 | B2 | ≥ 95%
3 | B3 | ≥ 95%
4 | B4 | ≥ 95%
5 | B5 | ≥ 60%
6 | B6 | ≥ 60%
7 | B7 | ≥ 95%
8 | B8 | ≥ 30%

molecular target: T2, hiR2-FL-P533-T7 (deletion of P533); assay: FACS, MEF-DKO cells, 3 µg/ml
Description: as §1, §2

Row | Binder | loss of binding vs wild type
9 | B9 | ≥ 95%
10 | B1 | ≥ 95%
11 | B2 | ≥ 95%
12 | B3 | ≥ 95%
13 | B4 | ≥ 95%
14 | B5 | ≥ 95%
15 | B6 | ≥ 95%
16 | B7 | ≥ 95%
